Measurements: US20230212587A1, “Mutant Hydroxyphenylpyruvate Dioxygenase Polypeptide, Encoding Gene Thereof and Use Therefor” (Beijing Dabeinong Biotechnology Co., Ltd., priority 2019, published 2023)
Substitutions are numbered along the chain they refer to. Names and notes keep the numbering of the source.

Columns and labels:
[1] = test system: Arabidopsis thaliana T1 plants; experiment: Topramezone tolerance of transgenic Arabidopsis thaliana T1 plants (pesticide damage grade by bleached leaf area, score, resistance evaluation); assay type: in vivo; details: for Resistance evaluation: HPPD F372V mutants, Table 7; for Grade 0 (number of plants) / Grade 1 (number of plants) / Grade 2 (number of plants) / Grade 3 (number of plants) / Resistance Grade / score: mutation combination, Table 8
Summary of the method: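 Herbicide tolerance was judged per plant on a bleaching scale (grade 0 no bleaching to grade 3 fully bleached) 7 DAT. Topramezone doses were 0, 25, 50 and 100 g ai/ha on 18-day-old T1 and wild-type plants.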

soybean T1 plants = experiment: Herbicide tolerance of transgenic soybean T1 plants to topramezone; assay type: in vivo; details: topramezone 50 and 100 g ai/ha, 7 DAT, compared to control vector DBN11375NN and wild-type
Text: The Arabidopsisthaliana T1 plants into which the AsHPPDm-F372A-02 nucleotide sequence was introduced, Arabidopsis thaliana T1 plants into which the AsHPPD-02 nucleotide sequence was introduced and wild-type Arabidopsisthaliana plants (18 days after sowing) were sprayed with topramezone at four different concentrations, i.e., 25 g ai/ha (one-fold field concentration, 1×), 50 g ai/ha (two-fold field concentration, 2×), 100 g ai/ha (four-fold field concentration, 4×) and 0 g ai/ha (water, 0×) to determine the tolerance of Arabidopsisthaliana to the herbicide. The degree of damage caused by the herbicide was measured for each plant according to the proportion of bleached leaf area (the proportion of bleached leaf area=bleached leaf area/total leaf area×100%) 7 days after spraying (7 DAT): the case where there is basically no bleached phenotype is defined as grade 0, the case where the proportion of bleached leaf area is less than 50% is defined as grade 1,the case where the proportion of bleached leaf area is more than 50% is defined as grade 2, and the case where the proportion of bleached leaf area is 100% grade is defined as grade 3.
The soybean T1 plants into which the AsHPPDm-F372A-02 nucleotide sequence was introduced, soybean T1 plants into which the ZmHPPDm-F372A-02 nucleotide sequence was introduced, soybean T1 plants into which the PfHPPDm-F372A-02 nucleotide sequence was introduced, soybean T1 plants into which the AsHPPDm-F372A-A110 nucleotide sequence was introduced, soybean T1 plants into which, the PfHPPDm-F372A-G413W nucleotide sequence was introduced, soybean T1 plants into which the control vector DBN11375NN was introduced and wild-type soybean plants (V3-V4 at seedling stage) were sprayed with topramezone at two different concentrations respectively, i.e. 50 g ai/ha (2-fold field concentration, 2 ×) and 100 g ai/ha (4-fold field concentration, 4 ×) to detect the herbicide tolerance of soybean plants. According to the method in point 6 of Example 1, after 7 days of spraying (7 DAT), the damage degree of each plant by the herbicide was statistically analyzed, and the scoring and resistance evaluation were carried out accordingly. The soybean plants into which the AsHPPDm-F372A-02 nucleotide sequence was introduced were of two strains in total (S1 and S2), the soybean plants into which the ZmHPPDm-F372A-02 nucleotide sequence was introduced were of two strains in total (S3 and S4), the soybean plants into which the PfHPPDm-F372A-02 nucleotide sequence was introduced were of two strains in total (S5 and S6), the soybean plants into which the AsHPPDm-F372A-Al 10 nucleotide sequence was introduced were of two strains in total (S7 and S8), the soybean plants into which the PfHPPDm-F372A-G413W nucleotide sequence was introduced were of two strains in total (S9 and S10), the soybean plants into which the control vector DBN11375NN nucleotide sequence was introduced were of one strain in total (S11), and the wild-type soybean plants were of one strain in total (CK1); and 8 plants were selected from each strain and detected.

B1: ZmHPPDm-F372V: Zea mays HPPD mutant F372V, SEQ ID NO: 347 (protein)
chain: MPPTPTAAAAGAAVAAASAAEQAAFRLVGHRNFVRFNPRSDRFHTLAFHHVELWCADAASAAGRFSFGLGAPLAARSDLSTGNSAHASLLLRSGSLSFLFTAPYAHGADAATAALPSFSAAAARRFAADHGLAVRAVALRVADAEEAFRTSVAAGARPAFGPVDLGRGFRLAEVELYGDVVLRYVSYPDGAAGEPFLPGFEGVASPGAADYGLSRFDHIVGNVPELAPAAAYFAGFTGFHEFAEFTTEDVGTAESGLNSMVLANNSENVLLPLNEPVHGTKRRSQIQTFLDHHGGPGVQHMALASDDVLRTLREMQARSAMGGFEFMAPPTSDYYDGVRRRAGDVLTEAQIKECQELGVLVDRDDQGVLLQIVPKPVGDRPTLFLEIIQRIGCMERDEKGQEYQKGGCGGFGKGNFSQLFKSIEDYEKSLEAMQAAAAATAQGS
modifications: ZmHPPDm-F372V Amino Acid Sequence
B1 was tested, and the Resistance evaluation ([1]; topramezone 25 g ai/ha (1x)) was “Highly resistant” and the Resistance evaluation ([1]; topramezone 100 g ai/ha (4x)) was “Poorly resistant”.

B2: N3HPPDm-F372V: Burkholderia sp. N3 HPPD mutant F372V, SEQ ID NO: 393 (protein)
chain: MQIPNWENPVGTDGFEFIEYTAPDPKALGQLFERMGFTAIARHRHKDVTVYRQGDINFIINAEPHSFAQRFARLHGPSICAIAFRVQDAAKAYQHALELGAWGFDNKTGPMELNIPAIKGIGDSLIYFVDRWRGKNGAQPGAIGDISIYDVDFEPIAGANPNPAGHGLTYIDHLTHNVHRGRMQEWAEFYERLFNFREVRYFDIEGKVTGVKSKAMTSPCGKIRIPINEEGSDTAGQIQEYLDAYHGEGIQHIALGTNDIYGAVDGLRGKEVKLLDTIDTYYELVDRRVPDHGESLDELKKRKILIDGARDDLLLQIVTENQIGPIFFEIIQRKGNQGFGEGNFKALFESIELDQIRRGVVQDKA
modifications: N3HPPDm-F372V Amino Acid Sequence
For B2, the Resistance evaluation ([1]; topramezone 25 g ai/ha (1x)) was “Highly resistant” and the Resistance evaluation ([1]; topramezone 100 g ai/ha (4x)) was “Highly resistant”.

B3: N4HPPDm-F372V: Burkholderia sp. N4 HPPD mutant F372V, SEQ ID NO: 395 (protein)
chain: B2 chain with H65D, N160T, N258S, N343T
modifications: N4HPPDm-F372V Amino Acid Sequence
For B3, the Resistance evaluation ([1]; topramezone 25 g ai/ha (1x)) was “Highly resistant” and the Resistance evaluation ([1]; topramezone 100 g ai/ha (4x)) was “Highly resistant”.

B4: N5HPPDm-F372V: Sphingobium sp. N5 HPPD mutant F372V, SEQ ID NO: 397 (protein)
chain: MAADSENPLGLHGFAFAEFTSPDPAAMARQFEQLGFVPAARRKDRGLTLYRQGRIAFILNAGEGEQASAFRAAHGPSANGMAFNVADAKAAHRHAIQSGATDADTAQSALPGTYAIEGIGDSLLYLVDSDPFADWDEVPGWREASAERGVGLDLLDHLTHNVRRGQMRVWSEFYATLFGFEEQKFFDIKGQATGLFSQAMIAPDHEIRIPLNESQDDNSQIEEFIREYNGEGIQHLALTTPDIYSTVEKLRANGVRLQDTIDTYYDLVDERVPGHGEDLARLRKNRILIDGDVHDEGLLLQIVTETMFGPIFFEIIQRKGNEGFGNGNFQVLFESIELDQIRRGVVTVDA
modifications: N5HPPDm-F372V Amino Acid Sequence
With B4 the Resistance evaluation ([1]; topramezone 25 g ai/ha (1x)) was “Highly resistant” and the Resistance evaluation ([1]; topramezone 100 g ai/ha (4x)) was “Highly resistant”.

B5: TaHPPDm-F372V: Triticum aestivum HPPD mutant F372V, SEQ ID NO: 353 (protein)
chain: MPPTPTTPAATGAGAAAAVTPEHARPRRMVRFNPRSDRFHTLSFHHVEFWCADAASAAGRFAFALGAPLAARSDLSTGNSVHASQLLRSGNLAFLFTAPYANGCDAATASLPSFSADAARRFSADHGLAVRSIALRVADAAEAFRASVDGGARPAFSPVDLGRGFGFAEVELYGDVVLRFVSHPDGTDVPFLPGFEGVSNPGAVDYGLTRFDHVVGNVPELASAAAYVAGFTGFHEFAEFTTEDVGTAESGLNSMVLANNSEGVLLPLNEPVHGTKRRSQIQTFLEHHGGPGVQHIAVASSDVLRTLREMRARSAMGGFDFLPPPLPKYYEGVRRIAGDVLSEAQIKECQELGVLVDRDDQGVLLQIVTKPVGDRPTLFLEMIQRIGCMEKDERGEEYQKGGCGGFGKGNFSELFKSIEDYEKSLEAKQSAAVQGS
modifications: TaHPPDm-F372V Amino Acid Sequence
In the case of B5, the Resistance evaluation ([1]; topramezone 25 g ai/ha (1x)) is reported as “Highly resistant” and the Resistance evaluation ([1]; topramezone 100 g ai/ha (4x)) is reported as “Moderately resistant”.

B6: GsHPPDm-F372V: Gossypium hirsutum HPPD mutant F372V, SEQ ID NO: 351 (protein)
chain: MVQTNQSGSGNDFKLVGFSNFVRSNPKSDRFTVKRFHHIEFWCTDATNVARRFSWGLGMQFVAKSDLSTGNLTHASYLLRSRDLNFLFTAPYSPSIAVAQNLSPQSTASIPSFDHSLCRSFAATHGLGVRAIAIEVDDAETAFTTSVTHGALPFCPPTPLGDVATIAEVKLYGDVVLRYVSYTTTINSDHDFLPGFEKIEDTLSYPLDYGLRRLDHAVGNVPELGPAVSYVKSFTGFHEFAEFTAEDVGTSESGLNSVVLANNEEMVLLPMNEPVFGTKRKSQIQTYLEHNEGAGVQHLALVSEDIFKTLREMRKRSFVGGFEFMPSPPPTYYKKLKQRAGDILSDEQIKECEELGILVDRDDQGTLLQIVTKPVGDRPTIFIEIIQRIGCMVKDEEGKQYQKGGCGGFGKGNFSELFKSIEEYEKSLEAKQSQNP
modifications: GsHPPDm-F372V Amino Acid Sequence
In the case of B6, the Resistance evaluation ([1]; topramezone 25 g ai/ha (1x)) is reported as “Moderately resistant” and the Resistance evaluation ([1]; topramezone 100 g ai/ha (4x)) is reported as “Non-resistant”.

B7: PfHPPDm-F372A-G413W: Pseudomonas fluorescens HPPD with F372A and G336W (position 413 of SEQ ID NO: 1), SEQ ID NO: 416 (protein)
chain: MADLYENPMGLMGFEFIEFASPTPGTLEPIFEIMGFTKVATHRSKNVHLYRQGEINLILNNEPNSIASYFAAEHGPSVCGMAFRVKDSQKAYNRALELGAQPIHIDTGPMELNLPAIKGIGGAPLYLIDRFGEGSSIYDIDFVYLEGVERNPVGAGLKVIDHLTHNVYRGRMVYWANFYEKLFNFREARYFDIKGEYTGLTSKAMSAPDGMIRIPLNEESSKGAGQIEEFLMQFNGEGIQHVAFLTDDLVKTWDALKKIGMRFMTAPPDTYYEMLEGRLPDHGEPVDQLQARGILLDGSSVEGDKRLLLQIASETLMGPVFFEFIQRKGDDGFGEWNFKALFESIERDQVRRGVLTAD
modifications: PfHPPDm-F372A-G413W Amino Acid Sequence
B7 was tested, and the “Grade 0 (number of plants)” value ([1]; topramezone 25 g ai/ha) was 20, the “Grade 1 (number of plants)” value ([1]; topramezone 25 g ai/ha) was 0 and the “Grade 2 (number of plants)” value ([1]; topramezone 25 g ai/ha) was 0. The “Grade 3 (number of plants)” value ([1]; topramezone 25 g ai/ha) was 0, the “Resistance Grade” value ([1]; topramezone 25 g ai/ha) was “Highly resistant” and the score ([1]; topramezone 25 g ai/ha) was 0. For the same molecule, the “Grade 0 (number of plants)” value ([1]; topramezone 100 g ai/ha) was 20, the “Grade 1 (number of plants)” value ([1]; topramezone 100 g ai/ha) was 0 and the “Grade 2 (number of plants)” value ([1]; topramezone 100 g ai/ha) was 0. The “Grade 3 (number of plants)” value ([1]; topramezone 100 g ai/ha) was 0, the “Resistance Grade” value ([1]; topramezone 100 g ai/ha) was “Highly resistant” and the score ([1]; topramezone 100 g ai/ha) was 0. For the same molecule, the “tolerance to topramezone, in words” value (soybean T1 plants) was “higher tolerance”.
